The values below come from the RNAGym collection of RNA variant scans (doi:10.1093/molbev/msab373).

The chains are these.
B1: Azoarcus group I ribozyme (parent)
chain: GUGCCUUGCGCCGGGAAACCACGCAAGGGAUGGUGUCAAAUUCGGCGAAACCUAAGCGCCCGCCCGGGCGUAUGGCAACGCCGAGCCAAGCUUCGGCGCCUGCGCCGAUGAAGGUGUAGAGACUAGACGGCACCCACCUAAGGCAAACGCUAUGGUGAAGGCAUAGUCCAGGGAGUGGCGAAAGUCACACAAACCGG

Variants of B1 are the subject of the data set. The experiment in a line: reverse-splicing fitness (ratio to wild type); higher = more active; in vitro selection; Mg2+ level not given. The procedure, abridged:
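An in vitro group I ribozyme library with randomized positions was T7-transcribed and gel-purified. In triplicate, 10 pmol RNA in EPPS pH 7.5 was reacted with 50 pmoles of a 30-nt RNA substrate for 1 h at 37 °C across several added MgCl2 levels (1–48 mM), then stopped with EDTA. Products were reverse transcribed from a substrate-complementary primer, PCR-amplified and sequenced (HiSeq 4000). Fitness is a variant's read proportion after selection over that before, normalised to wild type.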
As to A111U A120C A145G C169A U176C, the reverse-splicing fitness came to 0.0215. The same measure for A111U A120C A145G C169A U176G: 0.0041. As for A111U A120C A145G C169A U176A, the figure is 0.019; as for A111U A120C A145U C169U U176C, 0.0439; as for A111U A120C A145U C169U U176A, 0.0319. The same measure for A111U A120C A145U C169U U176G: 0.00586; for A111U A120C A145U C169A U176A: 0.00962; for A111U A120C A145U C169A U176G: 0.0044. In the case of A111U A120C A145U C169A U176C, the reverse-splicing fitness was determined as 0.0106.

Consider A111U A120G A145C C150G C169U U176C, for which the reverse-splicing fitness stood at 0.0146. The same measure for A111U A120G A145C C150G C169U U176G: 0.00521.

Consider A111U A120G A145C C150G C169U U176A, for which the reverse-splicing fitness came to 0.0163. Take A111U A120G A145C C150G C169G U176C: the reverse-splicing fitness worked out at 0.00636. With A111U A120G A145C C150G C169G U176G, the reverse-splicing fitness was 0.00359. As for A111U A120G A145C C150G C169G U176A, the figure is 0.00926; as for A111U A120C C150U C169G U176A, 0.0138; as for A111U A120C C150U C169G U176C, 0.0132.

For the variant A111U A120C C150U C169G U176G, the reverse-splicing fitness was found to be 0.00495. The same measure for A111U A120G A145U C169A: 0.117; for A111U A120G A145U C150U: 0.104; for A111U A120G A145U C150A: 0.0183.

A111U A120G A145U C150G: the reverse-splicing fitness was 0.02. The same measure for A111U A120C A145U C150G C169A U176G: 0.00497; for A111U A120C A145U C150G C169A U176C: 0.00757; for A111U A120C A145U C150G C169A U176A: 0.00913. As for A111U A120G A145G C150A C169A U176G, the figure is 0.00599. As for A111U A120G A145G C150A C169A U176A, the figure is 0.0188; as for A111U A120G A145G C150A C169A U176C, 0.0255. As for A111U A120C A145U C169A, the reverse-splicing fitness was determined as 0.0103. The same measure for A111U A120C A145U C169U: 0.168; for A111U A120C A145U C169G: 0.00837; for A111U A120G A145G C150G U176C: 0.0156. Turning to A111U A120G A145G C150G U176A, the reverse-splicing fitness worked out at 0.0103. The same measure for A111U A120G A145G C150G U176G: 0.00598; for A111U A120G A145U C150U C169G U176A: 0.0274; for A111U A120G A145U C150U C169G U176C: 0.0378. As for A111U A120G A145U C150U C169G U176G, the figure is 0.00496; as for A111U A120G A145C C150A C169G U176A, 0.0261. As for A111U A120G A145C C150A C169G U176C, the figure is 0.015. As for A111U A120G A145C C150A C169G U176G, the reverse-splicing fitness was 0.00529.

Turning to A111U A120C A145U C150U C169G, the reverse-splicing fitness came to 0.00826. For the variant A111U A120C A145U C150U C169U, the reverse-splicing fitness was 0.112. The same measure for A111U A120C A145U C150U C169A: 0.0105; for A111U A120C A145U: 0.596. As for A111U A120G A145U C169A U176C, the figure is 0.0247. As for A111U A120G A145U C169A U176A, the figure is 0.0201; as for A111U A120C A145U C150A C169A U176C, 0.00867; as for A111U A120C A145U C150A C169A U176G, 0.00488. As to A111U A120C A145U C150A C169A U176A, the reverse-splicing fitness turned out to be 0.0108. As for A111U A120G A145G C150G C169A U176G, the figure is 0.00787.

On to A111U A120G A145G C150G C169A U176A, for which the reverse-splicing fitness worked out at 0.0126.

On to A111U A120G A145G C150G C169A U176C, for which the reverse-splicing fitness stood at 0.0131. As for A111U A120G A145C C169A U176A, the figure is 0.0217. On to A111U A120G A145C C169A U176C, for which the reverse-splicing fitness was 0.0194. As to A111U A120G A145C C169A U176G, the reverse-splicing fitness turned out to be 0.00414. As for A111U A120G A145U C150U C169U U176C, the figure is 0.0395.

For the variant A111U A120G A145U C150U C169U U176G, the reverse-splicing fitness stood at 0.0055. The same measure for A111U A120G A145U C150U C169U U176A: 0.0396; for A111U A120C C150A C169G U176C: 0.0197; for A111U A120C C150A C169G U176A: 0.0168. As for A111U A120C C150A C169G U176G, the figure is 0.00525; as for A111U A120G A145G C150A C169U U176A, 0.0247.

Take A111U A120G A145G C150A C169U U176G: the reverse-splicing fitness is 0.00606.

As for A111U A120G A145G C150A C169U U176C, the reverse-splicing fitness came to 0.024. With A111U A120G A145U C150A C169A U176C, the reverse-splicing fitness worked out at 0.0102.

As to A111U A120G A145U C150A C169A U176G, the reverse-splicing fitness was 0.00499.

On to A111U A120G A145U C150A C169A U176A, for which the reverse-splicing fitness amounted to 0.0123. As for A111U A120G A145U C150G C169A, the figure is 0.0162. As for A111U A120G A145U C150G C169G, the figure is 0.021. For the variant A111U A120G A145U C150G C169U, the reverse-splicing fitness is 0.0212. Regarding A111U A120C A145G C150U C169U U176A, the reverse-splicing fitness worked out at 0.0282. The same measure for A111U A120C A145G C150U C169U U176G: 0.0053; for A111U A120C A145G C150U C169U U176C: 0.0389; for A111U A120G A145G C150G C169G: 0.0234. The same measure for A111U A120G A145G C150G C169A: 0.0157; for A111U A120G A145G C150G C169U: 0.0237; for A111U A120C A145G C169U U176G: 0.00517.

On to A111U A120C A145G C169U U176C, for which the reverse-splicing fitness was determined as 0.046. The same measure for A111U A120C A145G C169U U176A: 0.0335; for A111U A120C A145U C150U: 0.401. As for A111U A120C A145U C150G, the figure is 0.0712; as for A111U A120C A145U C150A, 0.061. As for A111U A120G A145G C150G C169G U176C, the figure is 0.0108.
